In PMC4159047 (Science signaling, 2014) one finds Kd, koff and kon data, which are given here for two molecules.

One may read the Kd as the concentration at which binding is half-saturated. Low readings indicate higher affinity, high ones lower affinity. As usually defined, the koff is the first-order rate constant of dissociation. Low readings indicate slow dissociation, high ones fast dissociation. Broadly, the kon is the second-order rate constant of association. Low readings indicate slow association, high ones fast association.

Assay [1] has as its target type IV collagen. Description: SPR. For orientation: In SPR one partner is held on a chip, and binding of the other changes the refractive index at the surface.
For assay [2], the target named is type IV collagen (biotin (Pierce EZ-link biotinylation kit) in the pull-downs). Description: SPR.

In assay [1], “Gpr126-NT-Fc (secreted, Fc-tagged protein containing the N-terminal fragment of zebrafish Gpr126) (Fc fusion)” came in with a dissociation constant Kd of 1.3 nM, a koff of 0.000404 s⁻¹ and a kon of 306000 M⁻¹ s⁻¹.

B1: CUBPTX-Fc (signal peptide, CUB domain and PTX domain of Gpr126 followed by an Fc tag) (Fc fusion, zebrafish, UniProt C6KFA3 41-336, looked up)
chain: CNVVLTDSQGSFTSPCYPNDYPPSQSCNWTIQAPAGFIVQITFLDFELEEAQGCIYDRVVVKTGTSDAKFCGLTANGLTLNSTGNVMEVFFNSDFSVQKKGFHISYKQVAVTLRNQKVTMPKSSKTILRVSNSISIPVLTAFTVCFEIARTAQKATETIFTLSDAAGTSILAFEKTSNGMELFIGASYCSVDNLLTSSDITATMKPLCLTWTKSSGLIGVYFGGHYFSSICSASQIYTLQSGGLLQIAGKGSSSVSVDDQNLDGFIYNFRLWDHAMLSSELSALTCDTVGNVVDWD
On to B1, for which, in assay [2], the dissociation constant (Kd) worked out at 1.2 nM, the koff was determined as 0.00333 s⁻¹ and the kon worked out at 2.78e+06 M⁻¹ s⁻¹.
